Source: patent US6936457

Target: human neuronal nicotinic acetylcholine receptor α7 subunit (human), P36544
Sequence (P36544 23-502 limits assumed): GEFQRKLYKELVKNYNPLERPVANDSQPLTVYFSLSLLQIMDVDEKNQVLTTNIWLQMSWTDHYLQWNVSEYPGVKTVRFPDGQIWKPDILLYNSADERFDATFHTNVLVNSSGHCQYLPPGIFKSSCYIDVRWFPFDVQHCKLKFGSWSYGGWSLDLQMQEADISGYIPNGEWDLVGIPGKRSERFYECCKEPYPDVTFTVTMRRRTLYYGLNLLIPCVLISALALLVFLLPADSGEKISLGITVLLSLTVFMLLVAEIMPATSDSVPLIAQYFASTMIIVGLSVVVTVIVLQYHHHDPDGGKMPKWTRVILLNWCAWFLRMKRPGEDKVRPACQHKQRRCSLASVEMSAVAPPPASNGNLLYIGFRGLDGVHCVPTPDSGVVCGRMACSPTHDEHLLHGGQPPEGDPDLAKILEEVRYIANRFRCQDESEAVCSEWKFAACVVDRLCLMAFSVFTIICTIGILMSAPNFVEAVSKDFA

B1: α-bungarotoxin, P60615 22-95 (peptide)
chain: IVCHTTATSPISAVTCPPGENLCYRKMWCDAFCSSRGKVVELGCAATCPSKKPYEEVTCCSTDKCNPHPKQRPG
modifications: not checked
- IC50: 3 nM
- percent of [3H]-MLA binding displaced: 65%
